According to patent US20160185837A1 (AstraZeneca / MedImmune, published 2016):

T1: human GIP receptor (human, UniProt P48546 22-466)
T1 sequence (looked up): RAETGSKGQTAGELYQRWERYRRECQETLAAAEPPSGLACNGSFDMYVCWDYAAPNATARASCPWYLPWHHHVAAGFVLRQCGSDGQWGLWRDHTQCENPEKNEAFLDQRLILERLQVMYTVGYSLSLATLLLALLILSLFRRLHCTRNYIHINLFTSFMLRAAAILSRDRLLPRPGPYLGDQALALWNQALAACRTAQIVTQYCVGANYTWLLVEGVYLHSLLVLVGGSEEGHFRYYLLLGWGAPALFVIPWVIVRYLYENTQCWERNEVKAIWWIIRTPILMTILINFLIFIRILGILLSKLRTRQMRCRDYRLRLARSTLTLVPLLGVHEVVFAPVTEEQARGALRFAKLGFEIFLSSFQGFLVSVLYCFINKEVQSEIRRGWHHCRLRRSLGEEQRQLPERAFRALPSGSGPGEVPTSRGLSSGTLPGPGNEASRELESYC

T2: mouse GLP-1 receptor (mouse, UniProt O35659 22-463)
T2 sequence (looked up): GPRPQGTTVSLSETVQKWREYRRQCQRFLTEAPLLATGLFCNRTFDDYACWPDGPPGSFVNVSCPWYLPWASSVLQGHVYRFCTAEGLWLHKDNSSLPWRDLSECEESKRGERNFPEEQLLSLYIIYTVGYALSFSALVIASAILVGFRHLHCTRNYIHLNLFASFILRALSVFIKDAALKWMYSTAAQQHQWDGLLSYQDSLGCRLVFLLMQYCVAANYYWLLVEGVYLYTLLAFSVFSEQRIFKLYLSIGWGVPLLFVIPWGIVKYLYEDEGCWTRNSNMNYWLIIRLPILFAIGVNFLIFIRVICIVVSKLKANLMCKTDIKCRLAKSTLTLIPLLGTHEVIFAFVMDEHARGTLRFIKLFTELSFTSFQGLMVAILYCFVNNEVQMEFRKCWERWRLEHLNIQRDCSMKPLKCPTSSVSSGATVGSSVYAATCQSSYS

T3: rat GLP-1 receptor (rat, UniProt P32301 22-463)
T3 sequence (looked up): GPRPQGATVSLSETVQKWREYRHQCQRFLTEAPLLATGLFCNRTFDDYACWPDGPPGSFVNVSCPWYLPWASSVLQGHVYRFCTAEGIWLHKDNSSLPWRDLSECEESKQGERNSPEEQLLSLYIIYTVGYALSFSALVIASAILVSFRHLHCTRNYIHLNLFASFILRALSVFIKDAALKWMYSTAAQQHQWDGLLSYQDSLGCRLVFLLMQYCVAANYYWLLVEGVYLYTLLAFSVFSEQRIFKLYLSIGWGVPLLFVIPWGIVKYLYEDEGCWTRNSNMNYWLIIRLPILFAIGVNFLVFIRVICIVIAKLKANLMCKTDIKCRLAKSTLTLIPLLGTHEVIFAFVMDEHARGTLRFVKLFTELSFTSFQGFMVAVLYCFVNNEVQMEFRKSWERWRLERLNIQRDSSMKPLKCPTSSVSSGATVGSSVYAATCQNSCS

T4: rat GIP receptor (rat, UniProt P43219 19-455)
T4 sequence (looked up): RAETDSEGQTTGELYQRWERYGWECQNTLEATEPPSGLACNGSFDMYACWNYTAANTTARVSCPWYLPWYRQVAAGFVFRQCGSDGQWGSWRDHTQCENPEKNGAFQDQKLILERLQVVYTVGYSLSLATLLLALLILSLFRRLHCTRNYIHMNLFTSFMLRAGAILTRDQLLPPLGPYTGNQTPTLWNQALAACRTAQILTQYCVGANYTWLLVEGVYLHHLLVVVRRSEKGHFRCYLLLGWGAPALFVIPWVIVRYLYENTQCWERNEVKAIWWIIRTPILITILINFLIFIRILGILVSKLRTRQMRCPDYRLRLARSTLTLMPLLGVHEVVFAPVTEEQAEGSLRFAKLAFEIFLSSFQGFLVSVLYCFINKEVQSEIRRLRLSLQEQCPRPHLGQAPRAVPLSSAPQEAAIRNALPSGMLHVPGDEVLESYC

T5: mouse GIP receptor (mouse, UniProt Q0P543 19-460)
T5 sequence (looked up): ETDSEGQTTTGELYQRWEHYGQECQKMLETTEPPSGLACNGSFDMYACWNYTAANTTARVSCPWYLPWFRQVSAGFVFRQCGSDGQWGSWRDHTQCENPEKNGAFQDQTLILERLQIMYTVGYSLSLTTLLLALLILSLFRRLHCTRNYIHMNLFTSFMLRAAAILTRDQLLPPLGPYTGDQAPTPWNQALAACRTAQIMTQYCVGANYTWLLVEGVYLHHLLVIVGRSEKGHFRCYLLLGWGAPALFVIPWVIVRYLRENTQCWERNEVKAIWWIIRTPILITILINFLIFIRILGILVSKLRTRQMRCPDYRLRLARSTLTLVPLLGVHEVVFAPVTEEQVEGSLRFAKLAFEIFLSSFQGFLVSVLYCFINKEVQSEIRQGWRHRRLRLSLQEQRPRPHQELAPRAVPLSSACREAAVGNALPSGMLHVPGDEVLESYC


Columns and labels:
Test in all cases: cell-based or functional assay
human GIP receptor = target: T1, human GIP receptor
human glucagon receptor = human glucagon receptor (human, UniProt P47871 26-477)
mouse GLP-1 receptor = target: T2, mouse GLP-1 receptor
rat GLP-1 receptor = target: T3, rat GLP-1 receptor
rat GIP receptor = target: T4, rat GIP receptor
mouse GIP receptor = target: T5, mouse GIP receptor
human GLP-1 receptor = human GLP-1 receptor (human, UniProt P43220 24-463)

Row | Binder | cAMP EC50 (human GIP receptor) [nM] | cAMP EC50 (human glucagon receptor) [nM] | cAMP EC50 (mouse GLP-1 receptor) [nM] | cAMP EC50 (rat GLP-1 receptor) [nM] | cAMP EC50 (rat GIP receptor) [nM] | cAMP EC50 (mouse GIP receptor) [nM] | cAMP EC50 (human GLP-1 receptor) [nM] | cAMP EC50, Batch 2 (human GIP receptor) [nM] | cAMP EC50, Batch 2 (human glucagon receptor) [nM] | cAMP EC50, Batch 2 (mouse GLP-1 receptor) [nM] | cAMP EC50, Batch 2 (rat GLP-1 receptor) [nM] | cAMP EC50, Batch 2 (rat GIP receptor) [nM] | cAMP EC50, Batch 2 (mouse GIP receptor) [nM] | cAMP EC50, Batch 2 (human GLP-1 receptor) [nM]
1 | IP323 (Fc fusion) YSEGTFTSDYSKLLEEEAVRLFIEWLVKGPGGGGGSGGGGSGGGGSGGGGSGGGGSGGGGSA | 0.017 | 190 | 0.34 | 0.019 | 0.082 | 65 | 0.2 | – | – | – | – | – | – | –
2 | IP327 (Fc fusion) YSEGTFTSDYSKLLEEEAVRLFIEWLLAGGGGGGGSGGGGSGGGGSGGGGSGGGGSGGGGSA | 0.016 | 10 | 0.7 | 0.032 | 0.028 | 1.2 | 0.25 | – | – | – | – | – | – | –
3 | IP297 (Fc fusion) YSEGTFTSDYSKLLEEEAVRLFIEWLLAGGGGGGGGGGGGGGGGGGGGGGGGGACPPC | 0.015 | 31 | 0.82 | 0.028 | 0.089 | 8.1 | 0.19 | – | – | – | – | – | – | –
4 | IP300 (Fc fusion) YSEGTFTSDYSKLLEEEAVRLFIEWLLAGAPPGGGGGGGGGGGGGGGGGGGGGACPPC | 0.013 | 21 | 0.94 | 0.027 | 0.069 | 0.9 | 0.21 | – | – | – | – | – | – | –
5 | IP324 (Fc fusion) YSEGTFTSDYSKLLEEEAVRLFIEWLVKGPGGGGGSGGGGSGGGGSGGGGSGGGGSGGGGSGGGGSA | 0.037 | 470 | 0.72 | 0.04 | 0.14 | 240 | 0.4 | 0.016 | 120 | 0.391 | 0.0363 | 0.141 | 67.5 | 0.14
6 | IP354 (Fc fusion) YSEGMHTSDFSKLLEEEAVRLFIEWLLAGGGGGGSGGGGSGGGGSGGGGSATHTCPPC | 0.024 | > 7370 | 13 | 3.6 | 0.74 | 270 | 1.4 | – | – | – | – | – | – | –
7 | IP358 (Fc fusion) YSEGTFTSDFSKLLEEEAVRLFIEWLLAGGGGGGSGGGGSGGGGSGGGGSATHTCPPC | 0.0094 | 140 | 1.1 | 0.15 | 0.049 | 12 | 0.24 | – | – | – | – | – | – | –
8 | IP357 (Fc fusion) YSEGTFTSDFSKLLEEEAVRLFIEFLLAGGGGGGSGGGGSGGGGSGGGGSATHTCPPC | 0.014 | 110 | 1.1 | 0.13 | 0.067 | 16 | 0.27 | – | – | – | – | – | – | –
9 | IP355 (Fc fusion) YSEGTHTSLFSKLLEEEAVRLFIEWLLAGGGGGGSGGGGSGGGGSGGGGSATHTCPPC | 0.17 | > 527 | 220 | 20 | 0.5 | 17 | 8.8 | – | – | – | – | – | – | –
10 | IP213 (Fc fusion) YSEGTFTSDYSKLLEEEAVRLFIEWLLAGGAAAGGSGSTASSGSGSATGGGGAATHTCPPCPAPEF | 0.0059 | 18 | 0.82 | 0.087 | 0.054 | 2.5 | 0.087 | – | – | – | – | – | – | –
11 | IP087 (Fc fusion) YSEGTFTSDYSKLLEEEAVRLFIEWLLAGPAAAGGSGSTASSGSGSATGGGGAATHTCPPCPAPEF | 0.0086 | 9.6 | 1.2 | 0.11 | 0.17 | 5.7 | 0.28 | – | – | – | – | – | – | –
12 | IP322 (Fc fusion) YSEGTFTSDYSKLLEEEAVRLFIEWLVKGPGGGGGSGGGGSGGGGSGGGGSGGGGSA | 0.026 | 260 | 0.41 | 0.025 | 0.11 | 8.3 | 0.29 | – | – | – | – | – | – | –
13 | IP326 (Fc fusion) YSEGTFTSDYSKLLEEEAVRLFIEWLLAGGGGGGGSGGGGSGGGGSGGGGSGGGGSA | 0.027 | 15 | 0.87 | 0.039 | 0.037 | 1.7 | 0.37 | – | – | – | – | – | – | –
14 | IP325 (Fc fusion) YSEGTFTSDYSKLLEEEAVRLFIEWLVKGPGGGGGSGGGGSGGGGSGGGGSGGGGSGGGGSGGGGSGGGGSA | 0.037 | > 455 | 0.64 | 0.035 | 0.13 | 170 | 0.46 | 0.018 | 110 | 0.488 | 0.0519 | 0.154 | 57.2 | 0.16
15 | IP328 (Fc fusion) YSEGTFTSDYSKLLEEEAVRLFIEWLLAGGGGGGGSGGGGSGGGGSGGGGSGGGGSGGGGSGGGGSGGGGSA | 0.085 | 43 | 3.9 | 0.21 | 0.17 | 5.4 | 1.2 | 0.033 | 13 | 1.3 | 0.12 | 0.092 | 2.2 | 0.33
